Results on one molecule are retold here after article PMC4161438 (PLoS Pathogens, 2014).

Test [1] deals with neutrophils. Put plainly: Neutrophil-induced coagulation. It is filed as cell-based, human. The conditions noted are these: DNAse (Dornase alfa) 4 µg/ml, 1 h, then PMA 50 nM, 3 h. How it is done: A) Platelet aggregation. Washed human platelets were stimulated with elastase only (500 nM, left panel), or cathepsin G only (110 nM, middle tracing), or elastase followed by cathepsin G (right tracing). […] Aggregation response was monitored by turbidimetry using a Lumi-Aggregometer. D) TFPI cleavage. […] After 2 h, reactions were stopped by addition of LDS loading buffer (under reducing conditions, 10 mM DTT), boiled for 5 min, and loaded in 4–12% Nu-PAGE gel. Gels were Coomassie Blue-stained. E) Neutrophil-induced coagulation. […] Fifty µl of this suspension was added to 50 µl of plasma, and reactions were started by addition of CaCl2 (12.5 mM, final concentration)(*, p<0.05).
Whole blood (5 mL collected in 0.5 mL of 3.2% sodium citrate) from healthy donors was diluted in an equal volume of PBS, layered over 5 mL of HISTOPAQUE solution (10771, Sigma Aldrich), and centrifuged for 40 min, at 400×g, at room temperature. The lower interphase having granulocytes was collected and transferred to a 15-ml Falcon tube and resuspended in 10 ml ammonium chloride lysis buffer (1.7 M NH4Cl, […], 1 mM EDTA) to lyse red blood cells. Lysis was carried out twice followed by centrifugation for 10 min at 400×g. Neutrophils were washed with PBS and resuspended at 1×10^6 cells/mL in high glucose DMEM (GIBCO). Neutrophils were kept on ice. […]

For test [2], the system named is neutrophils. Put plainly: NETs formation. It counts as cell-based, human. The settings on record: DNAse (Dornase alfa) 4 µg/ml; not shown. How it is done: Left panel, non-activated neutrophil (no PMA). Formation of NETs was visualized under confocal microscopy, using antibody against citrullinated histone. Representative experiment is shown (4 different donors). B) Quantification. Performed as described in Methods.
Whole blood (5 mL collected in 0.5 mL of 3.2% sodium citrate) from healthy donors was diluted in an equal volume of PBS, layered over 5 mL of HISTOPAQUE solution (10771, Sigma Aldrich), and centrifuged for 40 min, at 400×g, at room temperature. The lower interphase having granulocytes was collected and transferred to a 15-ml Falcon tube and resuspended in 10 ml ammonium chloride lysis buffer (1.7 M NH4Cl, […], 1 mM EDTA) to lyse red blood cells. Lysis was carried out twice followed by centrifugation for 10 min at 400×g. […]
Cells were fixed with 500 µl of 4% paraformaldehyde (final concentrations) for 10 min, washed 3 times with PBS and incubated for 10 min with blocking solution (PBS, 10%FBS, 5 mg/ml BSA). […] NETs were quantified according to Farley et al. Briefly, NETs were identified on digitalized images as Hoechst-positive fibrils emanating from cells with an overall length at least twice as long as the cell diameter and were counted for at least two fields of view per variable. Results were expressed as the percentage of NETs/total number of granulocytes.

Another test relates to baboons. The conditions noted are these: NETs-related thrombosis, DNase treatment; ref [19]; cited from earlier work. The source says:
In fact, platelets […] ...

B1: DNAse: DNAse (Dornase alfa, Genentech Inc.) (protein, UniProt P24855 23-282, looked up)
Deoxyribonuclease-1: LKIAAFNIQTFGETKMSNATLVSYIVQILSRYDIALVQEVRDSHLTAVGKLLDNLNQDAPDTYHYVVSEPLGRNSYKERYLFVYRPDQVSAVDSYYYDDGCEPCGNDTFNREPAIVRFFSRFTEVREFAIVPLHAAPGDAVAEIDALYDVYLDVQEKWGLEDVMLMGDFNAGCSYVRPSQWSSIRLWTSPTFQWLIPDSADTTATPTHCAYDRIVVAGMLLRGAVVPDSALPFNFQAAYGLSDQLAQAISDHYPVEVMLK
As for B1, the “pro-coagulant activity of PMA-activated neutrophils” value with neutrophils [1] was “reversed”. Also, the NETs-associated fluorescence signal result in the test on neutrophils [2] is “completely abrogated”. Also, the thrombosis in baboons result in the test on baboons is recorded as “prevented”.
